In the RNAGym collection of RNA variant scans (doi:10.7554/elife.80360):

B1: CPEB3 Ribozyme (parent)
chain: GGGGGCCACAGCAGAAGCGUUCACGUCGCGGCCCCUGUCAGAUUCUGGUGAAUCUGCGAAUUCUGCUGU

Variants of: B1
Test: self-cleavage, relative activity (ratio to wild type); higher = more cleavage; co-transcriptional

Going from GGGGGCCACAGCAGAAGCGUUCAUGUCGCGGCCCCUGUCAGAUUCUGGUGAAUCUGAGAAUUCUGCUGU to GGGGGCCACAGCAGAAGCGUUCAUGUCGCGGCCCCUGUCACAUUCUGGUGAAUCUGCGAAUUCUGCUGU, the self-cleavage falls from 0.309 to 0.303.

Compared with GGGGGCCACAGCAGAAGCGUUCAUGUCGCGGCCCCUGUCAGCUUCUGGUGAAUCUGCGAAUUCUGCUGU, GGGGGCCACAGCAGAAGCGUUCAUGUCGCGGCCCCUGUCAGAUUCUGGUGAAUCUGCGUAUUCUGCUGU is lower in self-cleavage: 0.673 for the first, 0.414 for the second.

First: GGGGGCCACAGCAGAAGCGUUCAUGUCGCGGCCCAUGUCAGAUUCUGGUGAAUCUGCGAAUUCUGCUGU
Second: GGGGGCCACAGCAGAAGCGUUCAUGUCGCGGCCCGUGUCAGAUUCUGGUGAAUCUGCGAAUUCUGCUGU
The self-cleavage of the first is lower: 0.17 for the first, 0.202 for the second.

Compared with GGGGGCCACAGCAGAAGCGUUCAUGUCGCGCCCCCUGUCAGAUUCUGGUGAAUCUGCGAAUUCUGCUGU, GGGGGCCACAGCAGAAGCGUUCAUGUCGCGGCCCCUGUCAGAUUCUGGUGAAUCUGCGAGUUCUGCUGU is higher in self-cleavage: 0.0935 for the first, 0.464 for the second.

Going from GGGGGCCACAGCAGAAGCGUUCAUGUCGCGGCCCCUGUCAGAUUCUGGUGAAUCUGCGAUUUCUGCUGU to GGGGGCCACAGCAGAAGCGUUCAUGUAGCGGCCCCUGUCAGAUUCUGGUGAAUCUGCGAAUUCUGCUGU, the self-cleavage falls from 0.299 to 0.229.

First: GGGGGCCACAGCAGAAGCGUUCAUGUCGCGGCCCCUGUCAGAUUCUGGUGAGUCUGCGAAUUCUGCUGU
Second: GGGGGCCACAGCAGAAGCGUUCAUGUCGCGGCCCCUGUCAGAUUCUGGUGAUUCUGCGAAUUCUGCUGU
The self-cleavage of the first is higher: 0.819 for the first, 0.81 for the second.

First: GGGGGCCACAGCAGAAGCGUUCAUGUCGCGGCCCCUGUCAGAUUCUGGUUAAUCUGCGAAUUCUGCUGU
Second: GGGGGCCACAGCAGAAGCGUUCAUGUCGCCGCCCCUGUCAGAUUCUGGUGAAUCUGCGAAUUCUGCUGU
The self-cleavage of the first is higher: 0.852 for the first, 0.152 for the second.

First: GGGGGCCACAGCAGAAGCGUUCAUGUCGCGGUCCCUGUCAGAUUCUGGUGAAUCUGCGAAUUCUGCUGU
Second: GGGGGCCACAGCAGAAGCGUUCAGGUCGCGGCCCCUGUCAGAUUCUGGUGAAUCUGCGAAUUCUGCUGA
The self-cleavage of the first is higher: 0.805 for the first, 0.509 for the second.

First: GGGGGCCACAGCAGAAGCGUUCAGGUCGCGGCCCCUGUCAGAUUCUGGUGAAUCUGCGAAUUCUGCUGG
Second: GGGGGCCACAGCAGAAGCGUUCAUGUCGCGGCCCCUGUAAGAUUCUGGUGAAUCUGCGAAUUCUGCUGU
The self-cleavage of the first is higher: 0.63 for the first, 0.315 for the second.

Compared with GGGGGCCACAGCAGAAGCGUUCAUGUCGCGGCCCCUGUUAGAUUCUGGUGAAUCUGCGAAUUCUGCUGU, GGGGGCCACAGCAGAAGCGUUCAUGUCGCGGCCCCUGUGAGAUUCUGGUGAAUCUGCGAAUUCUGCUGU is higher in self-cleavage: 0.549 for the first, 0.619 for the second.

First: GGGGGCCACAGCAGAAGCGUUCAUGUCGCGGCCCCUGUCAGAUUCUGGUGAAUGUGCGAAUUCUGCUGU
Second: GGGGGCCACAGCAGAAGCGUUCAUGUCGCGGCCCCUGUCAGAUUCUGGUGAAUCUGCGAAUUAUGCUGU
The self-cleavage of the first is higher: 0.586 for the first, 0.391 for the second.

Going from GGGGGCCACAGCAGAAGCGUUCAUGUCGCGGCCCCUGUCAGAUUCUGGUGAAUCUGCGAAUUUUGCUGU to GGGGGCCACAGCAGAAGCGUUCAGGUCGCGGCCCCUGUCAGAUUCUGGUGAAUCUGCGAAUUCAGCUGU, the self-cleavage falls from 0.719 to 0.325.

First: GGGGGCCACAGCAGAAGCGUUCAUGUCGCGGCCCCUGUCAGAUUCUGGUGGAUCUGCGAAUUCUGCUGU
Second: GGGGGCCACAGCAGAAGCGUUCAUGUCGCGGCCCCUGUCAGAUUCUGGUGUAUCUGCGAAUUCUGCUGU
The self-cleavage of the first is lower: 0.774 for the first, 0.785 for the second.

Compared with GGGGGCCACAGCAGAAGCGUUCAUGUCGCGGCCCCUGUCAGAUUCUGGUGAAUCUGCAAAUUCUGCUGU, GGGGGCCACAGCAGAAGCGUUCAUUUCGCGGCCCCUGUCAGAUUCUGGUGAAUCUGCGAAUUCUGCUGU is lower in self-cleavage: 0.516 for the first, 0.146 for the second.

First: GGGGGCCACAGCAGAAGCGUUCAGGUCGCGGCCCCUGUCAGAUUCUGGUGAAUCUGCGAAUCCUGCUGU
Second: GGGGGCCACAGCAGAAGCGUUCAUGUCGCGGCCCCUGUCAGAUUUUGGUGAAUCUGCGAAUUCUGCUGU
The self-cleavage of the first is lower: 0.148 for the first, 0.829 for the second.

First: GGGGGCCACAGCAGAAGCGUUCAUGUCGCGGCCCCUGUCCGAUUCUGGUGAAUCUGCGAAUUCUGCUGU
Second: GGGGGCCACAGCAGAAGCGUUCAUGUCGCGGCCCCUGUCAGAUUCUCGUGAAUCUGCGAAUUCUGCUGU
The self-cleavage of the first is lower: 0.228 for the first, 0.915 for the second.

Going from GGGGGCCACAGCAGAAGCGUUCAUGUCGCGGCCCCUCUCAGAUUCUGGUGAAUCUGCGAAUUCUGCUGU to GGGGGCCACAGCAGAAGCGUUCAUGUCGCGGCCCCUAUCAGAUUCUGGUGAAUCUGCGAAUUCUGCUGU, the self-cleavage falls from 0.223 to 0.167.

Compared with GGGGGCCACAGCAGAAGCGUUCAUGUCCCGGCCCCUGUCAGAUUCUGGUGAAUCUGCGAAUUCUGCUGU, GGGGGCCACAGCAGAAGCGUUCAUGUCUCGGCCCCUGUCAGAUUCUGGUGAAUCUGCGAAUUCUGCUGU is higher in self-cleavage: 0.191 for the first, 0.214 for the second.

First: GGGGGCCACAGCAGAAGCGUUCAUGUCACGGCCCCUGUCAGAUUCUGGUGAAUCUGCGAAUUCUGCUGU
Second: GGGGGCCACAGCAGAAGCGUUCAGGUCGCGGCCCCUGUCAGAUUCUGGUGAAUCUGCGAAUUCUGCCGU
The self-cleavage of the first is lower: 0.174 for the first, 0.522 for the second.

Variant GGGGGCCACAGCAGAAGCGUUCAGGUCGCGGCCCCUGUCAGAUUCUGGUGAAUCUGCGAAUUCUGCGGU has a self-cleavage of 0.508.
